The target of this experiment is K12-acetylated histone H4 tail peptide (residues 1–20), biotinylated at the C-terminus (UniProt P62805). The experiment can be described thus: SPR. A general note: In SPR one partner is held on a chip, and binding of the other changes the refractive index at the surface.

In general, Kd refers to a measure of binding affinity in units of concentration. The substance “second bromodomain of human BRD2 (BRD2-BD2: residues 348–455) (from UniProt P25440 348-455) (domain or fragment)” gave a dissociation constant Kd of 300 µM.
